Assay [1] addresses human IgG (human). The assay can be described thus: BLI (Octet), His-tagged gEgI immobilised on Ni-NTA sensor, response to human IgG. (In general: Biolayer interferometry detects binding as a change in optical thickness at a sensor tip.)
Assay [2] addresses human IgG (human). The assay can be described thus: BLI Octet, construct on Ni-NTA sensor, hIgG in solution.
The target of assay [3] is human IgG (human). The assay can be described thus: BLI (Octet), gEgI on Ni-NTA sensor, hIgG in solution.
The target in assay [4] is Recombinant HSV2 gEgI protein (coating antigen of the competitive ELISA, produced in ExpiHEK293F) (HSV2 strain SD90e) (UniProt P89475). The assay can be described thus: ED50 of the competitive ELISA (competitor: human IgG); GM of N=4 mice, 21PIII (D63); bar below the positivity threshold (1/10), 5 being the first dilution/2. A general note: In an ELISA, binding on a coated surface is turned into a signal by an enzyme label.

Assay [5] deals with Recombinant HSV1 gEgI protein (coating antigen of the competitive ELISA, produced in ExpiCHO) (HSV1 strain KOS321; HSV1 strain 17). The assay can be described thus: ED50 of the competitive ELISA (competitor: human IgG); GM of N=4 mice, 14PIII (D42); 5 is the value given to negative samples (first dilution/2), below the positivity threshold (1/10).
Assay [6] deals with Recombinant HSV2 gEgI protein (coating antigen of the competitive ELISA, produced in ExpiHEK293F) (HSV2 strain SD90e) (UniProt P89475). The assay is described as above.
In assay [7] the target is Recombinant HSV1 gEgI protein (coating antigen of the competitive ELISA, produced in ExpiCHO) (HSV1 strain KOS321; HSV1 strain 17). The assay can be described thus: ED50 of the competitive ELISA (competitor: human IgG); GM of N=5 mice, 21PII (D49); 5 is the value given to negative samples (first dilution/2), below the positivity threshold (1/10).
Assay [8] deals with human IgG (human). The assay can be described thus: BLI (Octet), gEgI on Ni-NTA sensor, hIgG in solution. This is another data set of the same source.

Where two headings read alike, the source gives them in different places. Where only a bound is given, the exact number is not on record here.

“PN100 (HSV2-gE_P317R-P318G_Δ319-320_gI) (from UniProt P89475 21-416; P06764 21-256) (receptor)” showed a hIgG binding response in the assay with human IgG (human) [1] of 0.0877 nm.

In the case of “PN92 (HSV2-gE_P317R-R320D_gI) (from UniProt P89475 21-416; P06764 21-256) (receptor)”, the hIgG binding response in the assay with human IgG (human) [1] came out at 0.056 nm.

In turn, “PN93 (HSV2-gE_P319D-R320D_gI) (from UniProt P89475 21-416; P06764 21-256) (receptor)” displayed a hIgG binding response with human IgG (human) [1] of 0.0658 nm.

Take “PN91 (HSV2-gE_P317R-P319D_gI) (from UniProt P89475 21-416; P06764 21-256) (receptor)”: the hIgG binding response in the assay with human IgG (human) [1] was 0.0658 nm.

In the assay with human IgG (human) [1], “PN94 (HSV2-gE_Δ319-320_gI) (from UniProt P89475 21-416; P06764 21-256) (receptor)” registered a hIgG binding response of 0.115 nm.

In turn, “PN96 (HSV2-gE_P318E_Δ319-320_gI) (from UniProt P89475 21-416; P06764 21-256) (receptor)” had a hIgG binding response in the assay with human IgG (human) [1] of 0.0619 nm.

Regarding “PN101 (HSV2-gE_P317G-P318K_Δ319-320_gI) (from UniProt P89475 21-416; P06764 21-256) (receptor)”, the hIgG binding response in the assay with human IgG (human) [1] stood at 0.0868 nm.

In turn, “PN95 (HSV2-gE_P317G-P318G_Δ319-320_gI) (from UniProt P89475 21-416; P06764 21-256) (receptor)” showed a hIgG binding response with human IgG (human) [1] of 0.0748 nm.

By Kd is commonly meant the free concentration of one partner at which half of the binding sites on the other are occupied at equilibrium, for simple one-to-one binding. The low end stands for higher affinity, the high end for lower affinity. For orientation: koff means the rate constant with which the complex falls apart. The kon is a measure of how fast the partners come together. A lower kon goes with slow association. In the assay with human IgG (human) [2], “HSV2-gE_A248G V340W_gI (from UniProt P89475 21-416; P06764 21-256) (receptor)” returned a Kd of 39.2 µM, a Response (nm) of 0.0826 nm, a koff of 0.0107 s⁻¹ and a kon of 273 M⁻¹ s⁻¹. Also, in the assay with human IgG (human) [3], the Kd came out at 39200 nM and the Response was found to be 0.0826 nm.

In the assay with human IgG (human) [2], “HSV2-gE_H245D_gI (from UniProt P89475 21-416; P06764 21-256) (receptor)” had a Kd of 17 µM, a Response (nm) of 0.133 nm, a koff of 0.00772 s⁻¹ and a kon of 453 M⁻¹ s⁻¹. In the assay with human IgG (human) [3], this substance yielded a Kd of 17000 nM and a Response of 0.133 nm.

For the substance “PN97 (HSV2-gE_P318G_Δ319-320_gI) (from UniProt P89475 21-416; P06764 21-256) (receptor)”, the hIgG binding response in the assay with human IgG (human) [1] is 0.146 nm.

As to “HSV2-gE_P318I_gI (from UniProt P89475 21-416; P06764 21-256) (receptor)”, in the assay with human IgG (human) [2], the Kd worked out at 4.44 µM, the Response (nm) came to 0.163 nm, the koff amounted to 0.00752 s⁻¹ and the kon turned out to be 1690 M⁻¹ s⁻¹. Moreover, in the assay with human IgG (human) [3], the Kd was found to be 4440 nM and the Response was 0.163 nm.

In the assay with human IgG (human) [2], “HSV2-gE_A246W_gI (from UniProt P89475 21-416; P06764 21-256) (receptor)” registered a dissociation constant (Kd) of 6.91 µM, a Response (nm) of 0.231 nm, a koff of 0.00621 s⁻¹ and a kon of 898 M⁻¹ s⁻¹. In the assay with human IgG (human) [3], this substance came in with a Kd of 6910 nM and a Response of 0.231 nm.

Regarding “HSV2-gE_A246W R320G_gI (from UniProt P89475 21-416; P06764 21-256) (receptor)”, in the assay with human IgG (human) [2], the Kd was < 1e-06 µM, the Response (nm) amounted to 0.0639 nm, the koff was < 1e-07 s⁻¹ and the kon was 3430 M⁻¹ s⁻¹. Besides, in the assay with human IgG (human) [3], the Kd amounted to 0.001 nM and the Response came out at 0.0639 nm.

Regarding “PN90 (HSV2-gE_gI) (from UniProt P89475 21-416; P06764 21-256) (receptor)”, the hIgG binding response with human IgG (human) [1] turned out to be 0.623 nm.

For the substance NaCl150mM, the ED50 titer (geometric mean) (reciprocal dilution) in assay [4], in assay [6] and in assay [7] was 5 in each case. Besides, the ED50 (geometric mean) (reciprocal dilution) in assay [5] amounted to 5.

“HSV2-gE_V340F_gI (from UniProt P89475 21-416; P06764 21-256) (receptor)”: in the assay with human IgG (human) [2], the Kd was < 1e-06 µM, the Response (nm) turned out to be 0.114 nm, the koff is < 1e-07 s⁻¹ and the association rate constant (kon) was found to be 3140 M⁻¹ s⁻¹. In the assay with human IgG (human) [3], the Kd was determined as 0.001 nM and the Response stood at 0.114 nm.

In the assay with human IgG (human) [2], “HSV2-gE_H245A R320T_gI (from UniProt P89475 21-416; P06764 21-256) (receptor)” returned a Kd of 1.16 µM, a Response (nm) of 0.23 nm, a koff of 0.00537 s⁻¹ and a kon of 4620 M⁻¹ s⁻¹. Moreover, in the assay with human IgG (human) [3], the Kd turned out to be 1160 nM and the Response was found to be 0.23 nm.

For “HSV2-gE_P318R S338G_gI (from UniProt P89475 21-416; P06764 21-256) (receptor)”, in the assay with human IgG (human) [8], the Kd was < 1 pM, the Response was found to be 0.177 nm, the koff was < 1e-07 s⁻¹ and the kon worked out at 8690 M⁻¹ s⁻¹. This substance also showed a Kd with human IgG (human) [3] of 0.001 nM.

In the assay with human IgG (human) [2], “HSV2-gE_H245G R320D_gI (from UniProt P89475 21-416; P06764 21-256) (receptor)” showed a Kd of 14.2 µM, a Response (nm) of 0.0927 nm, a koff of 0.00667 s⁻¹ and an on-rate constant (kon) of 469 M⁻¹ s⁻¹. Also, in the assay with human IgG (human) [3], the Kd is 14200 nM and the Response is 0.0927 nm.

With “PN98 (HSV2-gE_P318K_Δ319-320_gI) (from UniProt P89475 21-416; P06764 21-256) (receptor)”, the hIgG binding response with human IgG (human) [1] was determined as 0.135 nm.

As for “HSV2-gE_H245A R320G_gI (from UniProt P89475 21-416; P06764 21-256) (receptor)”, in the assay with human IgG (human) [2], the Kd came out at 1.41 µM, the Response (nm) is 0.192 nm, the koff is 0.00589 s⁻¹ and the kon is 4190 M⁻¹ s⁻¹. In addition, in the assay with human IgG (human) [3], the Kd stood at 1410 nM and the Response was 0.192 nm.

“PN99 (HSV2-gE_P317R-P318E_Δ319-320_gI) (from UniProt P89475 21-416; P06764 21-256) (receptor)” gave a hIgG binding response with human IgG (human) [1] of 0.0795 nm.

These data come from patent US20220273789A1.
